Patent US12637513B2, “Method of treating cancer by administering an inhibitor of erythropoietin receptor activity comprising either erythropoietin receptor or erythropoietin protein” (ImmunEdge, Inc., priority 2022, dated 2026)

Legend:
[1] = target: T1, EPO/EPOR interaction (EPOR-CD131-Fc and EPO) (Homo sapiens, UniProt P19235+P32927); assay: Octet blocking of the EPO/EPOR interaction by hybridoma supernatants; format: binding; conditions: EPO 10 nM
T1 construct: Chimeric Fc fusion proteins of the extracellular domains of human EPOR and human CD131; purchased Sino Biological CT010-H02H
T1 sequence (P19235 25-250 limits assumed): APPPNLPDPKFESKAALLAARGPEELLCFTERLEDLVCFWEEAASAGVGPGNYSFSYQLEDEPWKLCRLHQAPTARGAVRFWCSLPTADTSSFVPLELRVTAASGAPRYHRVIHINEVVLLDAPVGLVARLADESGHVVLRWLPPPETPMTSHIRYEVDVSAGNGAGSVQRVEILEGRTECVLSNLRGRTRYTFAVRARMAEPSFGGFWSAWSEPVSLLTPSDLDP
T1 sequence (P32927 17-443 limits assumed): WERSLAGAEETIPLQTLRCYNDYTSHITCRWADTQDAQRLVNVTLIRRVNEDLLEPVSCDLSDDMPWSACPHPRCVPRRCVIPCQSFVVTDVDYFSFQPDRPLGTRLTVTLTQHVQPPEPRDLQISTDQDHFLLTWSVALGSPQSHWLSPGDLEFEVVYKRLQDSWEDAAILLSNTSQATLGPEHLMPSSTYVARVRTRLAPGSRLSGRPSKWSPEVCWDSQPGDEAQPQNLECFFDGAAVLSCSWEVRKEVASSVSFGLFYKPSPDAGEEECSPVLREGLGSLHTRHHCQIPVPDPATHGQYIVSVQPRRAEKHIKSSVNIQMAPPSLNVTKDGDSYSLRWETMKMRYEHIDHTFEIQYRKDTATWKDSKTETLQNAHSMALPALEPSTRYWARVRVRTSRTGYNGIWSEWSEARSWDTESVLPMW

[2] = target: T2, 293T/EPOR cells (Homo sapiens, UniProt P19235); assay: Staining of 293T/EPOR cells with purified antibodies (flow cytometry); format: binding
T2 construct: expressed in transfected cells; host or cells: 293T cells expressing hEPOR
T2 sequence (P19235 25-508): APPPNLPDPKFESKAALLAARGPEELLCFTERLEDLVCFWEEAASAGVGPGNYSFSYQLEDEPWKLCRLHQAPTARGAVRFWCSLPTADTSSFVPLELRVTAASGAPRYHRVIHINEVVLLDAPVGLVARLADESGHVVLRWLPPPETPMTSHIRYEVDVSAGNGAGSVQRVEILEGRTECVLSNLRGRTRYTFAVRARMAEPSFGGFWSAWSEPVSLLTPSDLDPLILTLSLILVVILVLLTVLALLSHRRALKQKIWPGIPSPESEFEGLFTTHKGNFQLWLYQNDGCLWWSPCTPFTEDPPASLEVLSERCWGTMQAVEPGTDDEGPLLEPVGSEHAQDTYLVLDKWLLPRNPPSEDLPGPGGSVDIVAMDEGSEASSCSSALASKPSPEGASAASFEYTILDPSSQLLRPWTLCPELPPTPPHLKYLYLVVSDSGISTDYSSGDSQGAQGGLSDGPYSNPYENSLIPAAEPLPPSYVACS
Description: (§1) The purified antibodies were used to stain the human leukemia UT-7 cells, 293T/EPOR, 293T/CD131, and 293T/EPOR/CD131 cells to confirm antigen binding. The UT-7 cells were maintained in Roswell Park Memorial Institute (RPMI) with 10% Fetal Bovine Serum (FBS) and 5 ng/ml of recombinant human GM-CSF (Peprotech®, Cat #300-03). The 293T cells expressing hEPOR, hCD131, or both were maintained in Dulbecco's Modified Eagle Medium (DMEM) with 10% FBS. 1×10^6 cells/ml were incubated with purified hybridoma clones M2 and M41 at a 3-fold dilution series starting from 20 μg/ml for 30 minutes at 4° C. After washing, the cells were incubated with PE labeled secondary antibody and subjected to flowcytometric analysis. […] The binding profiles of the 293T/EPOR/CD131 cells are similar except the peak MFIs around 1500, half of that of the 293T/EPOR cells (FIG. 29B).

[3] = target: T3, 293T/EPOR/CD131 cells (Homo sapiens, UniProt P19235); assay: Staining of 293T/EPOR/CD131 cells with purified antibodies; format: binding
T3 construct: expressed in transfected cells; host or cells: 293T cells, lentiviral transduction
T3 sequence (P19235 25-508): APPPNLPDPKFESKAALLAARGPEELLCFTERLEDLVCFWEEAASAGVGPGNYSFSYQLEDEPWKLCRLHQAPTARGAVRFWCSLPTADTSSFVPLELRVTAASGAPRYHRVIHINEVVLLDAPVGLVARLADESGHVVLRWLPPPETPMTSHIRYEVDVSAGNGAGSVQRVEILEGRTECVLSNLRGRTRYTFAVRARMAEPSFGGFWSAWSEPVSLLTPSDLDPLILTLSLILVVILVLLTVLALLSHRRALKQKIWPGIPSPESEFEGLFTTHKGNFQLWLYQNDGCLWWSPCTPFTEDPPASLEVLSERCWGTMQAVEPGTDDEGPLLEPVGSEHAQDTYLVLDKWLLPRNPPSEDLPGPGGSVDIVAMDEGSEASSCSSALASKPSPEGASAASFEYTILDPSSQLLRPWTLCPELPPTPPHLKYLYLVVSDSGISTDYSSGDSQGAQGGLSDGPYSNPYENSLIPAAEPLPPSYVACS
Description: as §1

[4] = target: T4, 293T/CD131 cells (Homo sapiens, UniProt P32927); assay: Staining of 293T/CD131 cells with purified antibodies; format: binding
T4 construct: expressed in transfected cells; host or cells: 293T cells, lentiviral transduction
T4 sequence (P32927 17-897): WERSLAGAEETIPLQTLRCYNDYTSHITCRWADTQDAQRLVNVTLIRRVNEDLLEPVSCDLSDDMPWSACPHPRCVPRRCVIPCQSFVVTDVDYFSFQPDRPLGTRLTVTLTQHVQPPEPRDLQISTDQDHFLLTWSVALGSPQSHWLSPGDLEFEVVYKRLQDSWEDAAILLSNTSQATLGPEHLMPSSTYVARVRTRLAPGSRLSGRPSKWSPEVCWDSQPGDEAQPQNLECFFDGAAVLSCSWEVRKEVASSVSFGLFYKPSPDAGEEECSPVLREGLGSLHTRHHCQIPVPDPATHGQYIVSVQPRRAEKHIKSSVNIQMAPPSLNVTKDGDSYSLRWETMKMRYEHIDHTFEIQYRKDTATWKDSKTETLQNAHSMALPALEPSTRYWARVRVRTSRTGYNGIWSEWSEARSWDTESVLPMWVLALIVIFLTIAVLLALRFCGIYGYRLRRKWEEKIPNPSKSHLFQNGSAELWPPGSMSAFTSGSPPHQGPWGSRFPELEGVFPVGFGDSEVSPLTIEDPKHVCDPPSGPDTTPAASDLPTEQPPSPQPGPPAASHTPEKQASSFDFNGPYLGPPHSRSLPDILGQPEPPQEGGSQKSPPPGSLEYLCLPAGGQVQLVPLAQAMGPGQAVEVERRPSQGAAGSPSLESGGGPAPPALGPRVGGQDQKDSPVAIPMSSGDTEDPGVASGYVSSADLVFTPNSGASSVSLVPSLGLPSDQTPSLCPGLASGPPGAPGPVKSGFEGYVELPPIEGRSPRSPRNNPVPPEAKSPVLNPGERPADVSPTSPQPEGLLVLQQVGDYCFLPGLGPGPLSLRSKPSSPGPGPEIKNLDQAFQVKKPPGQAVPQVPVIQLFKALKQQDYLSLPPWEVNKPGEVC
Description: as §1

[5] = target: T5, EPOR (UT-7 cells) (Homo sapiens, UniProt P19235); assay: Flow-based phosphorylated Stat5 assay, blocking by anti-EPOR antibodies; format: cell-based; conditions: 20 μg/ml antibody; 0.1 μg/ml recombinant human EPO
T5 construct: endogenous in cells; host or cells: UT-7 human leukemia cells
T5 sequence (P19235 25-508): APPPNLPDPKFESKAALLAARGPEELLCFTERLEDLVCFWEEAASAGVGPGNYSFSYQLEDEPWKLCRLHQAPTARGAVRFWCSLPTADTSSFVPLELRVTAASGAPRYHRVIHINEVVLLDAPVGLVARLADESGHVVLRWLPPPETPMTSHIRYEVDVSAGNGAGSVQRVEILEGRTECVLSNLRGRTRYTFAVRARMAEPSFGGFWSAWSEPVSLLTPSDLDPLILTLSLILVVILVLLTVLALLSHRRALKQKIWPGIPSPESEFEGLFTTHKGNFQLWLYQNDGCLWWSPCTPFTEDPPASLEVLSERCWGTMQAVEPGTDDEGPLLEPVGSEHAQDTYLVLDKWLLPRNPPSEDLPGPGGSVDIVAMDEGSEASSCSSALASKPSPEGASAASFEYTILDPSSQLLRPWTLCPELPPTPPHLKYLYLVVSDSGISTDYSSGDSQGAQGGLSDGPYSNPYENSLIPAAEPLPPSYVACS
Description: EPOR activation leads to phosphorylation of Stat5. A flow-based assay on phosphorylated Stat5 was set up to test the blocking activities of anti-EPOR antibodies. The UT-7 cells were cultured without GM-CSF for overnight before the EPO stimulation. 3×10^6 cells/ml were incubated with 20 μg/ml of anti-EPOR for 15 minutes before stimulation with 0.1 μg/ml of recombinant human EPO (Peprotech®, Cat #100-64) for 10 minutes at 37° C. The cells were fixed immediately with fixation buffer (Cytofix™ buffer; BD Biosciences, Cat #554655) and permeabilized with methanol. After washing, cells were stained with PE labeled anti-Stat5 (BD Biosciences, Cat #612567) and subjected to flow cytometry analysis.

B1: EPORab - M41: hybridoma antibody clone, VH/VK in Table 10 (antibody, V domains shown)
VH: QVQLVESGGGLVQPGRSLRLSCAASGFTFDDYAIHWVRQAPGKGLEWVSGISYNSENIGYADSVKGRFTISRDNAKNSLYLQMNSLRSEDTALYYCAKDMFLTWFSSFDYWGQGTLVTVSS
VL: ETKLTQSPGTLSLSPGERTTLSCRASQSISNNYLAWYQQKPGQAPRLLIYRASTRATGIPDRFSGSGSGTDFTLTIRRLEPEDFAVYYCQRYGRSPLTFGGGTKVEIK
blocking of the EPO/EPOR interaction [1]: partial blocking | binding to 293T/EPOR cells ([2]; 0.74 μg/ml purified antibody): lost most of the binding | binding to 293T/EPOR cells ([2]; 20 μg/ml purified antibody): robust binding activities | peak MFI [3]: around 1500 | staining of 293T/CD131 cells [4]: did not stain | blocking of Stat5 phosphorylation [5]: partial blocking
